Values of other authors as cited in PMC4980431, “Ctf4 Is a Hub in the Eukaryotic Replisome that Links Multiple CIP-Box Proteins to the CMG Helicase” (Molecular Cell, 2016).
pKd: −log10 of the molar value.

Biological target: T1, Ctf4 471-927 (Ctf4CTD) (Saccharomyces cerevisiae, UniProt Q01454)
T1 sequence (Q01454 471-927): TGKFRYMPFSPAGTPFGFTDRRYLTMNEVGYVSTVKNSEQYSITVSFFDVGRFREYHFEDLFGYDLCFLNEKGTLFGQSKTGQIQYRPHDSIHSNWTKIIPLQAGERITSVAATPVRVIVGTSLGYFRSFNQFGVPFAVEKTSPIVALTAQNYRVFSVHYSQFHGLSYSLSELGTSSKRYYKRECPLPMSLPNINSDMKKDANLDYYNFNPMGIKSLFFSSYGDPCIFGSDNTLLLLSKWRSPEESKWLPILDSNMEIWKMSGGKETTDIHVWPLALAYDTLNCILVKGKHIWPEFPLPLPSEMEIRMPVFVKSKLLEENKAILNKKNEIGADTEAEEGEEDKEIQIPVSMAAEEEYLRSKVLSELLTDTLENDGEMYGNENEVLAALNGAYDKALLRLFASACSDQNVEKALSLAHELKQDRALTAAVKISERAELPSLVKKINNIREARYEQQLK
Settings: isolated CIP-boxes; quoted in Discussion; ref Simon et al., 2014; read-out: affinity constant Kd; cited from earlier work
From the text: The way that CIP-box proteins compete with each other for binding to Ctf4 remains an interesting issue for future investigation.

Substance: CIP-box of Sld5: isolated CIP-box of Sld5, affinity quoted from Simon et al., 2014 (MDINIDDILAELDKETTAVD; fluorescein label (N-terminal probable); the exact peptide limits are in Simon et al. 2014)
- pKd: 5.30
